Experimental data published in patent US20060292689A1.

Target: CCR-2 (human) (UniProt P41597)
Assay: cell-based or functional assay

Chain of CCR-2 (human) (P41597 whole entry): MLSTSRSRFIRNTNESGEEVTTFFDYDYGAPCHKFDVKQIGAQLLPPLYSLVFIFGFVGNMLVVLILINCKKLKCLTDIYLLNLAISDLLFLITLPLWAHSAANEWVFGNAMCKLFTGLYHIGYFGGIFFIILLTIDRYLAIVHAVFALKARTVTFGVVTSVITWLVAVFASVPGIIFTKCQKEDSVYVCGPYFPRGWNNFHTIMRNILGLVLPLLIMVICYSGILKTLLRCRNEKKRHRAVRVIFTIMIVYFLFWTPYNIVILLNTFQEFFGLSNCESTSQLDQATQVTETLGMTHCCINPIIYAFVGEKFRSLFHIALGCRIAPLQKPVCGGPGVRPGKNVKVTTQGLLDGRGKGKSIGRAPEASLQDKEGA

mean fluorescence intensity of CaR expression on monocytes: 673 units
Substance: MCP-1 (from UniProt P13500 24-99) (ligand)
